The text below walks through data of publication PMC3156282 (Bioorganic & medicinal chemistry letters, 2011).

Numbered stars: 1 amine (or outer) side, 2 acyl side, 3 side chain; on linkers, the order of the positions; unused ones are H or OH. Square brackets hold non-standard residues; d marks the D form. Side chains are listed from the residue outwards. 4‑DMNA = 4-N,N-dimethylamino-1,8-naphthalimido-alanine, CN(C)c1ccc2c3c(cccc13)C(=O)N(C[C@H](N[*:1])C(=O)[*:2])C2=O; 4‑DMN = 4-DMN: an environment-sensitive fluorophore; 9‑Å linker = not defined here

This assay deals with Cdc42 (UniProt P60953 1-191). Kind of assay: other fluorescence titration.
Chain of Cdc42 (P60953 whole entry): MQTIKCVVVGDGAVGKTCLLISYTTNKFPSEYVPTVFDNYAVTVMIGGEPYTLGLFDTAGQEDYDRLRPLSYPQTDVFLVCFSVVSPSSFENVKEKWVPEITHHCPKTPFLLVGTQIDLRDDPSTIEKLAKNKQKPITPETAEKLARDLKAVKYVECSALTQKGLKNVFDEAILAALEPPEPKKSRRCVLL

For GB1-KKKISKADIGAPSGFKHVSHVGWDPQNGFDVNNLDPDLRCL[4‑DMNA]SRAGIS-His6 (domain or fragment), the Kd (commonly the equilibrium constant for the complex coming apart) came out at 385 ± 9 nM.

Take GB1-KKKISKADIGAPSGFKHVSHVGWDPQNGFDVNNLDPDLRSLC([9‑Å linker-4‑DMN])SRAGIS-His6 (domain or fragment, UniProt P42768 230-277, looked up, not fully specified; reading uncertain) [4-DMN sensor 3 (GB1-WASP(230–277)-His6, Phe271Cys, Cys271 labeled with 4-DMN through a 9-Å linker)]: the Kd is 341 ± 22 nM.
